Results reported in the DeepSol protein solubility set.

Assay: soluble on expression in E. coli; label from the status in PepcDB or PDB records

Soluble on expression in E. coli, soluble:
GSEDFTFDGTKRLSVNYVKGILQPTDTCDIWDKIWNFQAKPDDLLISTYPKAGTTWTQEIVELIQNEGDVEKSKRAPTHQRFPFLEMKIPSLGSGLEQAHAMPSPRILKTHLPFHLLPPSLLEKNCKIIYVARNPKDNMVSYYHFQRMNKALPAPGTWEEYFETFLAGKVCWGSWHEHVKGWWEAKDKHRILYLFYEDMKKNPKHEIQKLAEFIGKKLDDKVLDKIVHYTSFDVMKQNPMANYSSIPAEIMDHSISPFMRKGAVGDWKKHFTVAQNERFDEDYKKKMTDTRLTFHFQF
MAELWEIVSFLDEYLKISEYPDKSSNGLQVEGKEEVNTIAFAVDACLDTIVKARAFNADMLIVHHGLIWGGVKYVKGLFAKRVKELLKSNMNLYAAHLPLDAHPEVGNNAQLLKLLGLEPKEKFGEYHGVMIGYIGEFEEEKPLPLIAQMLAEKLPVDYVKSYEFGVQEIKRVGVVSGGGGFAVEEASEKGVDLFITGEFTHEDYRAAEDLRLSVIAAGHYATETLGVKALMPILREKFGVKTIFIDSPTGLLEHHHHHH
AIAEVLRPPLININGRIYRKNPVQEETYEEEEEDCSYSEAAVDQCLDEPCDAHNIEQTDRGFRCALDVPSVLYKYIIGKKGETRRRLESETKTSINIPKQGVEGQIVVTGAHRPSVSSAVTRIEVLIDSFRRKQPFTHFLSFALNHAQVREGFLRFREEVLEHCSQDSGVDVSIFQNPDKLHLTIGTLVLLNQQEVTRANELLHQCQDTIREITGAEALPVEVRGVEYMNDDPSMVDVLYAKVSVQDGSDRLQQISDRLVECFVSAGLMERERDRVKIHATVMNTLFRRDPSAEDRGAPARANPRDREAFNGKNILQMFGDFYFGAFELNSVQISQRFSTDSSGYYSSAGHITFS
MSLDPQYDGVWRQSLALLAQDTAGVIPSSTAVKWLTDQQCANGAFAPFRADPAKACDAKTPVDTNNTAAAVQALWAVGGHGDVIEEALGWLKSVQNEDGGWGYVPGTPSDANSTSVVIGALTATETDPAKVVKDGKSPYDALLTFALPCAKDKGAGAFAFQPDKDGKLLPNADATAAGVLGTLGEGLVAEAGKKTGAASCADADQPDRERAAANAAAYLTDTLAKDGHLVSALGGSADQPDYGNTADAVVALAAQGGADKAAEPLAWLKKNAAKWAGEGHHHHHH
MNMAERAEATKSWSCEPLSGKTLEEIVQNAENAADLVAYIRKPEVDLDFRLKFIAEHEEFFNEQLSDRNSRIRTCHNLSDKGIRGDTVFVFVPGLAGNLEQFEPLLELVDSDQKAFLTLDLPGFGHSSEWSDYPMLKVVELIFVLVCDVLRKWSTAVPNNDNVNPFNGHKIVLVGHSMGCFLACHLYEQHMADTKAVQTLVLLTPPKAHIEQLSKDKHIIQWALYGVFKLPWLFDVYRNKFDQVKGLQSSGIKQYFYQQGDDVKLKYRKFWQFKNNISNKSRTIIGYLLGWETVDWVKFNGVLTQTDMKQKIIIFGAEKDPIAPIENLEFYKQTINKECLRKVIILPDCSHNLCFDRPELVCENFQREVIDNSKL
MSKISQQNSTPGVNGISVIHTQAHASGLQQVPQLVPAGPGGGGKAVAPSKQSKKSSPMDRNSDEYRQRRERNNMAVKKSRLKSKQKAQDTLQRVNQLKEENERLEAKIKLLTKELSVLKDLFLEHAHNLADNVQSISTENTTADGDNAGQ
MSWWQRAVIYQVYPRSFQDTNGDGVGDLEGIRRRLPYLKSLGVDALWLSPFYKSPMKDFGYDVADYCDVDPVFGTLQDFDRLLEEAHALGLKVLVDLVPNHTSSEHPWFLESRASRNSPKRDWYIWKDPAPDGGPPNNWQSFFGGPAWTLDEATGQYYLHLFLPEQPDLNWRNPEVREAIKEVMRFWLRRGVDGFRVDVLWLLGKDPLFRDEPGSPLWRPGLPDRARHEHLYTEDQPETYAYVREMRQVLDEFSEPGRERVMVGEIYLPLPRLVRYYAAGCHLPFNFSLVTEGLSDWRPENLARIVETYEGLLSRWDWPNWVLGNHDQPRLASRLGEPQARVAAMLLFTLRGTPTWYYGDELALPNGLIPPEKVQDPAALRQRDREPTAYHTLGRDPERTPMPWDASPYGGFSTVEPWLPLNPDYRTRNVAAQEKDPRSMLHLVKRLIALRKDPDLLYGAYRTYRAREGVYAYLRGEGWLVALNLTEKEKALELPRGGRVVLSTHLDREERVGERLFLRPDEGVAVRLD
TSLFAQEIRLSKRHEEIVSQRLMLLQQMENKLGDQHTEKASQLQTVETAFKRNLSLLKDIEAAEKSLQTRIHPLPRPEVVSLETRYWASV

Soluble on expression in E. coli, not soluble:
MGSDKIHHHHHHMIDLSTDYLGLKLKNPLVPSASPLSRNLDNALRLEDAGAAALVMYSLFEEELRAEDAMLDRFLTCPDFGHSEAANFLPSAPFEDGLERYVSQLQKLKARLGIPVIASLNGVSRSGWVELGRALEEAGADALELNVYHVAAEMWENGEAVEARYLSLLRDLRHAVKLPIVMKLSPFFSSLPNFVKRLEHAGAQGVVLFNRFYQPDIDLDTLCVVDRLHLSYPDEALLRIRWLSILHGRTGLTLAATGGVHSHDEALKMLLVGADVIHLASCLLQHGPARLTRILQDIERWMGERDYASVAQLKGSMSQKNLLDPAAMARLSYLRVLDSFSPQPGVWS
MAFFRLAALLWLGMLMSPVQAQSLSLQVLDAVVKDAVLADAEVQLGQASGRTDAQGRVTLEAADSPGSELLIRKLGYADLRAKCPCQGLSYAMSPVLKDPQSLRVVLSWSAPGEDLDAHLSYPHRLLYYATGTGPGARMNVDSTDSRGPETLTIEQPVPGDAYVYAVHDFTNGNNPESLRLGRSQAQVFVYKGPTLMRSYRVPQNRQGNLWVVFRLTANGQLQDIDRVLQGNEEVESRMSDLDPLLLANGKPIDEVLARDEGPVDAKSLNQKGEASYRKGDVGSAGIYYREAIELDPGFAQAYSNLALSNRKNSRPDEAVAADRQAIALASGPSAPTIRASAYYDMGRIYEDAGQLVTALEHYRKAREQKANPVYDKAIERLQNRLEHHHHHH
MGHHHHHHSHMMSPGLLLKPWWGGAQSEMGRNGMLEGCSVMSVGASRLGEGRVRPRAHSRRPVTRPRWRAAGPCTGTCQGGSHSRTLVLRLKAVSTTPTSANDLVQIKFRRDGGNRVVEALNLSEKRKDRKALCFSQSLHLQGEEIELTALSRSFQLRNVYFMISNI
MSLSFKNVNLIYADIATDSAETPETVLTQDDLEKEFEFWEATSLGLFDYMRKSRSKGFVLSLSGGADSSACAIMVAEMIRKGLKELGLTAFLQKSNMETLFDLPALQHLPFEEQAKKITAVFLTTAYQSTRNSGDETYTSAKTLAESIGATFYNWSVDEEIEQYKATIENVIERPLTWEKDDITLQNIQARGRAPIIWMLTNVKQALLITTSNRSEGDVGYATMDGDTAGGIAPIAGVDKDFIRSWLRWAEKNRNQHGLHIVNKLAPTAELRPSEYTQTDERDLMPYDVLARIERKAIKERLSPVQVYTALLTEGPYTKNEFKYWVKKFFRLWSINQWKRERLAPSFHMDDFNIDPRSWYRFPILSSGFAKELNDLDQEGHHHHHH
MSICDPALRNALRTLKLSGMLDTLDARLAQTRNGDLGHLEFLQALREDEIARRESAALTRRLRRAKFEAQATFEDFDFTANPKLPGAMLRDLAALRWLDAGESVILHGPVGVGKTHVAQALVHAVARRGGDVRFAKTSRMLSDLAGGHADRSWGQRIREYTKPLVLILDDFAMREHTAMHADDLYELISDRAITGKPLILTSNRAPNNWYGLFPNPVVAESLLDRLINTSHQILMDGPSYRPRKRPGRTTS
MRKPTDTLPVNLQRRRLLCAAGALLLSPLAHAGAQREETLADDVASVMRSSVGSVNPPRLVFDNPKEGERWLSAMSARLARFVPEEEERRRLLVNIQYESSRAGLDTQIVLGLIEVESAFRQYAISGVGARGLMQVMPFWKNYIGKPAHNLFDIRTNLRYGCTILRHYRNLEKGNIVRALARFNGSLGSNKYPNAVLGAWRNRWQWR
MGSDKIHHHHHHMPQLRDSGNHSTAPLDAHTKDEIQSFARIFGIETEYGVSVTGSDRPCDAGQTAMMMFQPIVAEARSTNTYIENGSRLYLDVGSHPEYATAEARDPMDALALDAAGELVMRDLALDAQRRLRSIQGAGSTVHVFKNNVDSAGHSFGCHENYLVRRFVPLKTIEQELLPFLITRQLFTGAGRMGEQGFQITQRADFLDEAVSSATTRSRPMVNTRDEPHADPDAFRRLHVIIGDSNRSQWATMMKLATTHLVLCVIEQAGREGKDSGFARFSFADASAANHKVSRDLTGVEASFDMADGTVMEGGAVAIQERYLEIVERFVGQHPEVCSSLPRTDVHEVIRRWRRVIEAFRSGVSETFADKVDWLAKRRLFDMLRNRAGGRLSVSKLEQLDMDYHDVANGALYASLCRRGAMRTLVNESQAHEAIDVPPHDTRAALRGRFIQSARSHNAQYSCDWTRLSLTSPNRMDVTLLDPFDAQPSDRFLTILEALQ
MPSRQLEDPGAGTPSPVRLHALAGFQQRALCHALTFPSLQRLVYSMCSLCQEENEDMVPDALQQNPGAFRLAPALPARPHRGLSTFPGAEHCLRASPKTTLSGGFFVAVIERVEMPT
MGSDKIHHHHHHMADYQQMWANLGMDLEKHDVLCEVLPEAFGGVYLTQQDRPKGMDFYDFVVSEIHGVRPAEMLQHQKEGGKVFGTFCVYVPDEVVFAAGGIAAGLCGGSQFWVSGGEKVLPANTCPLIKASVGARLDKTCPFFLIPDMYVAENTCDGKKKAWEILAGEVPMHIIDIPQMKRERDVAAFAAEIRDFIGVVEKVTGKKINAESLGEAIKLINNKRRALQRVYNARKASPVPISGKDALLVTQINFYDDPARAAQMANNLADELEQRINNGTGVFPENAPRIMISGTPMAIPNWKLHHIVESLGAAIVVEESCTGTRYFENLVDETASTLDEQIRALAERYMKTNCACFTPNSARIDDIIRLADEYKVDGIIDTNLQFCNLYSTESYLIKQVMTERNLPIIHIETDYSEQDFEQLRTRVEAFLEMLRK
MSLDEKLRTSGVQVIGDIAWGTHFCQFYRTQEELVNVVCPYLKAGLEGNELCIWALPRDFETKKEAEGPLRRTIPKLDIYLEKGQMEIISYKDRYAEKEIPDSKKALENLIKKADYALLNGYSGLRLVQDTSWLKNDWKNLTGYEEELDIAIENRRITALCTYSSGKFDTDETIYAALSHRFVLVKKEGNWEKVENPRLKKAEERVIQPSEEVETKTEEENENLKKLLEERTVELTEAYKSLKVNEKQFLQIRKMTHIGNWKWDILTGELHWSDEVYRIFGRDPERFKATCDAFLGSVHPDDREYLINSIKKDFDEQIRNIDYRIVLPDGEERTVRTRVEITFDEEGHHHHHH
MWNNVTTIKIQFHRIEQLGSVQLDDKNRICKFTSFDGQLELQGRHGRCSVDIESPEFVRFVQFLVNKTEKSNEPIDQRRVFGKFRALEHGVLDVTTYRNRFHGVVARNMILLDNLSIDLSIRMIFALSGKMETNFLSEVEKHGIVRLDNQNRIIEYVANDGKMKLKGQHDGRKDHGTQATQDPV
MNVMQENQIKLIEHIKQAVVQAVGLEETEVPEILLEVPKDKKHGDYSTNIAMQLARVAKKAPRQIAESIVPELKKDTKLIKEVEIAGPGFINFYLDNAYLTDLVPVILTEDKKYG
MKIYYLGPEGSYTEKAALKFAELTNLKITPAESIYSVFREVERGNYGVVPTENSIEGSVTLTLDLLLRFPVKIFGETSLEIKHALLGYDLSKIRVVLSHPQALAQCREFIQRMRWGVRETNSTAEAVKIVAESNDPTLAAIGSREAAEIYGLKVLAEDIQDYPNNKTRFILIGREDM
MPSRLSLIAALLLPLAVQAEPADTRALLADSLADSQAQVEAAEQAMRRSENKAVQLYAKRVLTEQQEFDHQLRALAGEKALALPSPRQTERQAAAPGGFDERGFLDAQIRQQDRLVARFEGIARDSADPDLRRFADEWLARFYHHRELADQLRSGRAD
